Measured values: the domain aggregation screens of Martell et al. (2025)

Assay: soluble fraction after stress (log2 fold change); higher = more stays soluble; pooled small domains, quantitative proteomics
Details: stress: pH 4
In short: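 Aggregation propensity is read out as the fold change in how much of each domain remains soluble after acid stress. The custom small-domain libraries were pooled, held at pH 4 and analysed with high-throughput quantitative proteomics. On the log2 scale used, higher values mean more of the domain stayed soluble.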

| Sequence | soluble fraction (log2) |
| --- | --- |
| HMKDESQLVGAEGKAVTPLRPTGVALIGEKRLDVLTEGEFIPRNSDIIVSRVEGNKIIVKLKN | 0.22 |
| HMKDHLRFEILSFAGDLRNGVVKTRQEFETIFAFYDKYEEIITALKVHNGYVDSEFDFIKEKFKELKSK | 0.194 |
| HMKDLQAISERMEEIISFAKANDNEISLFIVQDIIKNKKTGIDEDLLNMALYQIKEQGIKVLPA | -1.05 |
| HMKDSIQIPNVVGMTIKDAQSQYGKSFSIIEQNRTESTKPAGTILEQTPAGGDTVSKRDNIIIRVVVSLG | 0.36 |
| HMKDSKSALQEYALERKMGLPVYEVVDRSGPDHAPQFVIAVSLGEWRLEAKGASKRQAEQQAASLMLEEI | -0.0445 |
| HMKDYTIDDIINSKVEHPLGGYQSRFKVGEYEVSVVGGRQTNHGDFIHTFELAIFDKNNNFLRNLTPVTID | -0.411 |
| HMKEATTSPLDGIPGIGSKRKKALLSHFGSARSVARADIPDLMRVDGISRQVAETIYGWFHN | 0.311 |
| HMKEDFPLLEQLRYTGEGADVTGTAEKMESIQALRSAADSGGFRATLGDIQQIPGGGLRFTLSLRGSR | -0.226 |
| HMKEDNPIVLINLQAKEGEWVFKGTGLPYVGKYHQHKNGEYMIGIGVLNLNHELKPDEIIIPNPNK | 0.0576 |
| HMKEEDYEVFMRLINVRGIGPKSALNILGVISGQEMIQAIENDDIKRLKSLPGIGAKTAGQIVLDLKGKFV | -0.705 |
| HMKEFIPPVLDDVLKFFSGSLLPDWENQGRLFFSHYNSQGWRKGTGVQVTDWDSLANKWILDEKIKRDARS | -0.214 |
| HMKEGTIPPVVNRTLSDAEFVLKSYGYELGRVSEQHSDMPKDIVIKQSPEAGTVADPGTRVDVVVSIGKA | 0.0175 |
| HMKEHDTLALRLTAILRKLNDGEKLVPRELAEEFNVGIRTIQRDLTERLSFLDLEKTNGAYSLPTRNL | -0.36 |
| HMKEIIFRGIGEFILDYKSLVIEFLNKNNYANLSMDAPVDEVNKAVANNMLNEDFVTELLLFQRRVE | -2.16 |
| HMKEILLITGKGLHSGQDDVYKSAQLSKLRYSVPEFIKSNLEISQLILSVETPLQKDGGDGALLIK | -0.192 |
| HMKEILVGVEPLSKKQIIIKKGIKGRSDYIIFEKKNYGLPENLKPEEVSIEIALKIIDEKKKRKA | 0.22 |
| HMKEIPTKKGDMLEIYEANGKYILKYPTFNITMPEVVKEIPKEAVDSYLAGKHDGEELINYANFGFWKS | 0.315 |
| HMKEKDAYTSEILDTLKNAKLLVVEGTVYPLLTRLKNDGLLNYRWEESTSGPPRKYYGLTDEG | -0.449 |
| HMKEKIIKEPYDLFTTDKIGQALEVQALLARQGIKVQRRVDGTKSTLFLENYTQSEKDQALLAVVRSGIV | 0.167 |
| HMKEKPLWAIRITELREEHYFTQTDVSKALGIAQTTYAGYETGRHEPDFETMIKIADIYKVSLDYLIGR | -0.288 |
| HMKELFETLPDVLDAKLLASALSISKAGAYQLLNRPDFPTLQVGGWKLVTKQKLALWMEQHTN | -0.511 |
| HMKELFGQRLREQRLKQNLTLEQLAEKANLSPNYVGMVERGLKEPGLATIVKLLNGLNVSADTLL | 0.155 |
| HMKELLTKQQREEILETVKTKTPKDFGYTAEHWTTGFLGKWIEEHYEVEYKSKTSLYLVFKKASFTYHKPG | 0.0606 |
| HMKELTARQIEILDFITNYEWRHGYWPSIRNIQVQFSYKSTNAVMGHLRALERKGAIERIPGQARTFRIH | 0.102 |
| HMKEPFETMPDVMDAKQIAEALQISKAGAYNLLNSPDFPTLRIGGRKLVMKNELVEWLKSHTNRK | 0.126 |

| Sequence | soluble fraction (log2) |
| --- | --- |
| HMKEPPTLEEIKNYFASKLSTELESEKFFNYFESNGWLVGGKTPMKNWQSAANNWLINMSKFN | -0.323 |
| HMKEPQLGPVRKWSDQTGNFGIEAQFVKREGDNILLKRADQRTISIPLEKLSDADQEHLKQEEQKQAME | -0.312 |
| HMKEQLEAYVNRLFADAALTIRNAEVRQEILQHALDRYDDLIASGKTEQEAYDETVSGIGDVSGLYEHK | -0.526 |
| HMKETKVIHVHLIFKKTSRFFGSISAIYSEFTAEEIGITEETLRHKGLSDGVSFATKKAIIQQGVLIR | -1.45 |
| HMKEVDSESAFAERGISEVWIPALQKMGILTLEALDAANPNKVFNDLGGMRKKLKIDAAMPTKDEVTAWIQ | -0.053 |
| HMKEVKPSDFFLSKLDEDHNLIEKFNALSSFKQKEFIEYIDSAKQEKTKHDRFEKIKPILLSNIGLNDKYR | -0.102 |
| HMKEVVVPDYFLKQLQKNKKAFITFNNFSPSHKREYVEWITEAKTEETKNRRMKSAIEWMSEGKSRNWKYI | 0.22 |
| HMKFGETLIDLRKRNGLTQEELAAKLYVTRQAVSRWERGEVTPGIDMLKLIANVLNEPVAHLLDW | -0.435 |
| HMKFNRPMSEILQEWENKLGTTSDAELAGLIGVVTMTINRWRKNETKPDLSALNRYDRIVNLVVNNIKQL | -0.321 |
| HMKFPPELVEFIEGLSLLKPPLNYATVHRRAEKLAIKKGWASPSYSTVRNIIRKLSPALTTLAHEG | 0.22 |
| HMKGAADPAIKQKVLDYLDTVEKAKSKEIAKAISEEKSAVDLAVKELAFEDKVEYLYITTTFVALKGKVA | -0.865 |
| HMKGALQIAIEEGFNWNLDKKYWNIVQSTVIAKRLGLKTTSGLKEAIEGMGGEYKRTKKARGYLVPTFKD | 0.354 |
| HMKGDYWIIDLDKNYQYAIISEPDRQYLWILSRSPNMDTQTLETLKEKIRSKGFDLTYLKQTL | -1.24 |
| HMKGHQASTTWISERVKDIIKEDPTLGARKLQKRLEIHYNIELSYFKVWSGKNLQWMIFMVL | 0.00439 |
| HMKGSYTVKSGDNLWSIARKFYGGSGSTWTKIYSANKSTIESTARRYGRSSSDNGHWIYPGTVLVIP | 0.405 |
| HMKGVSFEEIERAVRTAQNPEADETAQQHAGMVFSRMEGNELFDKLVQSSSTIGKKITGLMDYYL | -0.378 |
| HMKGYIGESKARNIALKKAPGASITKFEFDKDDGIAVYEVELRKGIYEYELKINAVTGAIIEFEKDIE | 0.147 |
| HMKHKYWEIKERIKKDILNEVYKKGESIPSERDLAGIYDVTRVTVQKAMAMLVQEGYIERIHGKGMFVLKN | -0.0581 |
| HMKHRFVVGEVLSIGKLQHEITLKTAQGERKFQLDKQDLPASIQDGAKVRAELNEAGRVIDVHPLK | -0.178 |
| HMKHYMKITDISLQTRDKNRVNVSVDGKYRFSLDVFQVGELGLKVGREYTDEELTALEDESQFG | 0.0815 |
| HMKIATIELVKEAVKSKLGKFTKRDIMELVPSVGKTTIENMLKQLIGEGYIERHGKGRATFYVK | 0.158 |
| HMKIDANTFTSIEKQLFVLLSKTPTPMGSIFVALAKEDKEAVWEVIHFLEAENRLIMNEDGTIQL | -1.09 |
| HMKIDEVSFAYIERTLFSMLGKLPTPVNKVIATIGEEKKETIWEVIRFLESENKLITNEDGTLQL | -1.77 |
| HMKIDNIIIYITGGVKKEGVYELPDGSRISDAIEQAEGLKANADTSSINLAYKLEDGMKIKIPLQGEN | -0.664 |
| HMKIDNPEYQKIMDMIPYFFQTRNYDEAIEALSYVIEQEPSFSEAYNKRATFYFMMGDFENSMKDIESTLA | -0.75 |
